Results from patent publication US7498317B2, “Antibacterial agents and process for producing the same” (Kabushiki Kaisha Yakult Honsha, priority 1998, dated 2009).

Tested on: Helicobactor pylori
Experiment: Growth of Helicobactor pylori in 96-well microplate (turbidity at 600 nm)
Type: cell-based
Settings: 37° C. for 3 days; for suppression of the growth of Helicobactor pylori: 2 μL of 1 mg/mL added to 200 μL culture; for absorbance (turbidity at 600 nm): 2 μL of 1 mg/mL added to 200 μL of 1.5×10^8 CFU/mL in Brucella medium with 5% FCS, slightly aerobic, control group 0.835

SMILES	suppression of the growth of Helicobactor pylori	absorbance (turbidity at 600 nm)
CON=C(C(=O)N[C@@H]1C(=O)N2C(C(=O)O)=C(COC(C)=O)CS[C@H]12)c1csc(NCC(O)C2OCC(O)C2OC2OC(CO)C(OS(=O)(=O)O)C(O)C2O)n1 (stereo partly shown) [CarrabioCTX]	totally suppressed the growth	0.000
CC1(C)S[C@@H]2[C@H](NC(=O)C(NCC(O)C3OCC(O)C3OC3OC(CO)C(OS(=O)(=O)O)C(O)C3O)c3ccccc3)C(=O)N2C1C(=O)O (stereo partly shown) [CarrabioAM]	totally suppressed the growth	0.003
